Measurements taken from paper PMC5532383.

Molecular target: PPI peptide (…) in complex with pMHC-CD8wt monomer (HLA-A02:01)
Assay: micropipette adhesion frequency assay; biotinylated pMHC monomers on streptavidin-coated biotinylated RBCs brought into contact with single CTL clones; adhesion frequency against contact time, equilibrium at 4 s; 2D affinity AcKa in μm^4; room temperature (main figures) and 37°C (supplement)

2D affinity (AcKa): 1e-06 μm^4
Substance: CD8 co-receptor on human HCV-specific CTL clones (from UniProt P01732 22-235; P10966 22-210)
